Assay results: patent US20150344570A1 (published 2015)
Where a chain is given by its changes, count along the chain named. Numbers in names are those of the source. Each block holds one binder with its values, some of them ahead of it.

Key:
[1] = target: FcγRIIIa F (human, UniProt P08637 17-208); test: SPR (Biacore), KD; the variant that showed the most enhancement
[2] = target: FcγRIIa H (human, UniProt P12318 34-217); test: SPR (Biacore), KD; showed the most enhancement
[3] = target: FcγRIIa R (human, UniProt P12318 34-217); test: SPR (Biacore), KD; showed the most enhancement
[4] = target: FcγRIIIa V (human, UniProt P08637 17-208); test: SPR (Biacore), KD; the variant that showed the most enhancement
Sequence of FcγRIIIa V (P08637 17-208): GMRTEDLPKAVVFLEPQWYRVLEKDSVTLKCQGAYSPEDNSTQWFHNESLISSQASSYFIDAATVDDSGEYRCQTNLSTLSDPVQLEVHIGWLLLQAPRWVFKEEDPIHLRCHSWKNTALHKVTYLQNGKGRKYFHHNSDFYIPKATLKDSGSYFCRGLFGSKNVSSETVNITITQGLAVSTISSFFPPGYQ

[5] = target: T1, FcγRIIIa (human, UniProt P08637 17-208); test: SPR (Biacore); KD of GpH7-TA7/GpH7-B78/GpL16-k0 for FcγRIIIa divided by the KD of this antibody (this row is the reference itself)
T1 construct: extracellular domain; Soluble extracellular domain with a C-terminal His tag, expressed in FreeStyle293 cells and used as the analyte in Biacore; also called FcgRIIIa; CD16A; not shown: His tag attached to the C terminus
T1 sequence (P08637 17-208): as above
Experimental: The prepared antibodies were compared for the FcγRIIIa-binding activity using, as an indicator, KD for FcγRIIIa that was determined according to the method described in Reference Example 2.
Analysis of interaction between objective antibody and the FcγR was carried out using Biacore T100 (GE Healthcare). HBS-EP+ (GE Healthcare) was used as the running buffer, and the measurement temperature was set to 25° C. Chips produced by immobilizing the antigen peptide by the amine coupling method to a Series S Sencor Chip CM5 (GE Healthcare), or alternatively, chips produced by allowing preliminarily biotinylated antigen peptides to interact with and immobilize onto a Series S Sensor Chip SA (certified) (GE Healthcare) were used. Antibodies of interest were captured onto an antigen peptide-immobilized chip, and allowed to interact to each FcγR diluted with running buffer. To regenerate and repeatedly use the chip, the antibodies captured on the chip were washed off by reacting 10 mM glycine-HCl, pH 1.5.
Specifically, to calculate association rate constant ka (L/mol/s) and dissociation rate constant kd (1/s), sensorgrams obtained by measurement were processed for global fitting by Biacore Evaluation Software using 1:1 Langmuir binding model and dissociation constant KD (mol/1) was calculated from the resulting values.

[6] = target: T2, FcgRIIIa V (human, UniProt P08637 17-208); test: SPR (Biacore); KD of GpH7-Kn033/GpH7-Hl033/GpL16-k0 for this FcγR divided by KD of this antibody (reference itself)
T2 construct: extracellular domain; also called FcγRIIIa V; FcγRIIIaV
T2 sequence (P08637 17-208 F176V limits assumed): as the sequence (P08637 17-208) above, with F160V counted along it

[7] = target: T3, FcgRIIb (human, UniProt P31994 43-217); test: as above
T3 construct: extracellular domain; also called FcγRIIb; CD32B
T3 sequence (looked up): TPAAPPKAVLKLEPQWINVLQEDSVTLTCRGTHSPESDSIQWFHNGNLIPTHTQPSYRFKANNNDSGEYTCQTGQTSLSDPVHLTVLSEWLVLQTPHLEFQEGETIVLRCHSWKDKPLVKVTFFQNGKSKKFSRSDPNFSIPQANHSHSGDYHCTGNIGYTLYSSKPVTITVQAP

[8] = target: T4, FcgRIIa R (human, UniProt P12318 34-217); test: as above
T4 construct: extracellular domain; also called FcγRIIa R; FcγRIIa type R
T4 sequence (looked up): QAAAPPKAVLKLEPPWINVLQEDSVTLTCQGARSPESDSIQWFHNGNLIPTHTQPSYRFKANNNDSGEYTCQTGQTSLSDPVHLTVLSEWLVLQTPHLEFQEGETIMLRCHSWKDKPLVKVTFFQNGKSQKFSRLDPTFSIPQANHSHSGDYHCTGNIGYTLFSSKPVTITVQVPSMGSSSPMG

[9] = target: T5, FcgRIa (human, UniProt P12314 16-292); test: as above
T5 construct: extracellular domain; also called FcγRIa; FcγRI
T5 sequence (P12314 16-292): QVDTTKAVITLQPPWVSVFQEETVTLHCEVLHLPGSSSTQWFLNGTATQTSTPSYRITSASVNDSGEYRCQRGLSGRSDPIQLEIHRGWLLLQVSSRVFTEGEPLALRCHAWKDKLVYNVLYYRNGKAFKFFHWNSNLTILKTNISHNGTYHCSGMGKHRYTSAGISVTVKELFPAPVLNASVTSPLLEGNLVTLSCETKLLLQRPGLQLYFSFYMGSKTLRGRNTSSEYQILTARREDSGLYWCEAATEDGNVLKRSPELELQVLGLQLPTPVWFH

[10] = target: T6, FcgRIIIa F (human, UniProt P08637 17-208); test: as above
T6 construct: extracellular domain; also called FcγRIIIa F; FcγRIIIaF
T6 sequence (P08637 17-208): as the sequence (P08637 17-208) above

[11] = target: T7, FcgRIIa H (human, UniProt P12318 34-217); test: as above
T7 construct: extracellular domain; also called FcγRIIa H; FcγRIIa type H
T7 sequence (looked up): T4 sequence (looked up) with R134H

Sequence of FcγRIIIa F (P08637 17-208): as above

B1: H240-Kn227/H240-Hl214/L73-k0 (antibody, human IgG1, kappa)
heavy 1: QDQLVQSGAEVKKPGASVKVSCKASGFNIKDTYIQWVRQAPGQGLEWMGRIDPLRKQTKYREKFEGRVTITADTSTNTAYMELSSLRSEDTAVYYCVRSGREFDYWGQGTLVTVSSASTKGPSVFPLAPSSKSTSGGTAALGCLVKDYFPEPVTVSWNSGALTSGVHTFPAVLQSSGLYSLSSVVTVPSSSLGTQTYICNVNHKPSNTKVDKKVEPKSCDKTHTCPPCPAPEEQWGPIVFLFPPKPKDTLMISRTPEVTCVVVDVSDEEPEVKFNWYVDGVEVHNAKTKPREEQYNATYRVVSVLTVLHQDWLNGKEYKCKVSNKALPAPIEKTISKAKGQPREPQVCTLPPSRDELTKNQVSLWCLVKGFYPSDIAVEWESNGQPENNYKTTPPVLDSDGSFFLYSKLTVDKSRWQQGNVFSCSVMHEALHNHYTQKSLSLSP
heavy 2: QDQLVQSGAEVKKPGASVKVSCKASGFNIKDTYIQWVRQAPGQGLEWMGRIDPLRKQTKYREKFEGRVTITADTSTNTAYMELSSLRSEDTAVYYCVRSGREFDYWGQGTLVTVSSASTKGPSVFPLAPSSKSTSGGTAALGCLVKDYFPEPVTVSWNSGALTSGVHTFPAVLQSSGLYSLSSVVTVPSSSLGTQTYICNVNHKPSNTKVDKKVEPKSCDKTHTCPPCPAPELLGGPSVFLFPPKPKDTLMISRTPEVTCVVVDVSHEEPEVKFNWYVDGVEVHNAKTKPREEQYNSTYRVVSVLTVLHQDWLNGKEYKCKVSNDALPFPIEETISKAKGQPREPQVYTLPPSRCELTKNQVSLSCAVKGFYPSDIAVEWESNGQPENNYKTTPPVLDSDGSFFLVSKLTVDKSRWQQGNVFSCSVMHEALHNHYTQKSLSLSP
light: DIQMTQSPSSLSASVGDRVTITCRASQDIHKYIAWYQQKPGQAPRLLIQYTSTLQPGVPSRFSGSGSGTDYTFTISSLQPEDIATYYCLQYEQLRTFGGGTKVEIKRTVAAPSVFIFPPSDEQLKSGTASVVCLLNNFYPREAKVQWKVDNALQSGNSQESVTEQDSKDSTYSLSSTLTLSKADYEKHKVYACEVTHQGLSSPVTKSFNRGEC
notes: 330 F in H240-Hl076
fold binding activity against H240-Kn033/H240-Hl033/L73-k0 [1]: 161 fold

B2: H240-Kn231/H240-Hl068/L73-k0 (antibody, human IgG1, kappa)
heavy 1: B1 heavy 1 with E233I, Q234Y, E269D, A326D
heavy 2: B1 heavy 2 with F329K
light: B1 light
fold binding activity against H240-Kn033/H240-Hl033/L73-k0 [2]: 33 fold
fold binding activity against H240-Kn033/H240-Hl033/L73-k0 [3]: 83 fold

B4: GpH7-TA7/GpH7-B78/GpL16-k0 (antibody, human IgG1, kappa)
heavy 1: QVQLVQSGAEVKKPGASVTVSCKASGYTFTDYEMHWIRQPPGEGLEWIGAIDPKTGDTAYSESFQDRVTLTADKSTSTAYMELSSLTSEDTAVYYCTRFYSYTYWGQGTLVTVSSASTKGPSVFPLAPSSKSTSGGTAALGCLVKDYFPEPVTVSWNSGALTSGVHTFPAVLQSSGLYSLSSVVTVPSSSLGTQTYICNVNHKPSNTKVDKKVEPKSCDKTHTCPPCPAPEYLWGPSVFLFPPKPKDTLMISRTPEVTCVVVDVSHEDPEVKFNWYVDGVEVHNAKTKPREEQYNATYRVVSVLTVLHQDWLNGKEYKCKVSNKALPAPIEKTISKAKGQPREPQVYTLPPSRKELTKNQVSLTCLVKGFYPSDIAVEWESNGQPENNYKTTPPVLDSDGSFFLYSKLTVDKSRWQQGNVFSCSVMHEALHNRYTQKSLSLSP
heavy 2: B4 heavy 1 with Y232L, W234G, S237D, A296S, A328L, I330E, K354D, R433H, K437E
light: DIVMTQSPLSLPVTPGEPASISCQASESLVHSNRNTYLHWYLQKPGQSPQLLIYKVSNRFSGVPDRFSGSGSGTDFTLKISRVEAEDVGVYYCSQNTHVPPTFGQGTKVEIERTVAAPSVFIFPPSDEQLKSGTASVVCLLNNFYPREAKVQWKVDNALQSGNSQESVTEQDSKDSTYSLSSTLTLSKADYEKHKVYACEVTHQGLSSPVTKSFNRGEC
notes: Heterodimerized anti-glypican-3 IgG1 antibody with two different H chains (same variable region GpH7) and a common L chain; also called TA7/B78
KD ratio [5]: 1

Now from value to binder:

fold binding activity against H240-Kn033/H240-Hl033/L73-k0 [4]: 107 fold
B3: H240-Kn203/H240-Hl210/L73-k0 (antibody, human IgG1, kappa)
heavy 1: B1 heavy 1 with E233F, Q234Y, I238M, E269D, A326D
heavy 2: B1 heavy 2 with F329A
light: B1 light
notes: 330 A in H240-Hl076

KD ratio [6]: 1 fold
KD ratio [7]: 1 fold
KD ratio [8]: 1 fold
KD ratio [9]: 1 fold
KD ratio [10]: 1 fold
KD ratio [11]: 1 fold
B5: GpH7-Kn033/GpH7-Hl033/GpL16-k0 (antibody, human IgG1, kappa)
heavy 1: not shown
heavy 2: not shown
light: B4 light
notes: Anti-glypican-3 antibody; knobs-into-holes alone applied to G1d (knob chain Y349C/T366W; hole chain D356C/T366S/L368A/Y407V); also called Kn033/Hl033
